B1: Alanine--glyoxylate aminotransferase, P21549 (parent)
chain: MASHKLLVTPPKALLKPLSIPNQLLLGPGPSNLPPRIMAAGGLQMIGSMSKDMYQIMDEIKEGIQYVFQTRNPLTLVISGSGHCALEAALVNVLEPGDSFLVGANGIWGQRAVDIGERIGARVHPMTKDPGGHYTLQEVEEGLAQHKPVLLFLTHGESSTGVLQPLDGFGELCHRYKCLLLVDSVASLGGTPLYMDRQGIDILYSGSQKALNAPPGTSLISFSDKAKKKMYSRKTKPFSFYLDIKWLANFWGCDDQPRMYHHTIPVISLYSLRESLALIAEQGLENSWRQHREAAAYLHGRLQALGLQLFVKDPALRLPTVTTVAVPAGYDWRDIVSYVIDHFDIEIMGGLGPSTGKVLRIGLLGCNATRENVDRVTEALRAALQHCPKKKL

Variants of: B1
Settings: Homo sapiens; pH 7.4; Thermal; DSC; Hepes 20 mM; NaCl 200 mM; transition: 2; reversible: No; structure 1H0C; whole UniProt chain shown

| Variant | Tm | change of melting temperature, mutant - wild type (higher = more stable) | unfolding enthalpy (calorimetric) |
| --- | --- | --- | --- |
| MASHKLLVTPLKALLKPLSIPNQLLLGPGPSNLPPRIMAAGGLQMIGSMSKDMYQIMDEIKEGIQYVFQTRNPLTLVISGSGHCALEAALVNVLEPGDSFLVGANGIWGQRAVDIGERIGARVHPMTKDPGGHYTLQEVEEGLAQHKPVLLFLTHGESSTGVLQPLDGFRELCHRYKCLLLVDSVASLGGTPLYMDRQGIDILYSGSQKALNAPPGTSLISFSDKAKKKMYSRKTKPFSFYLDIKWLANFWGCDDQPRMYHHTIPVISLYSLRESLALIAEQGLENSWRQHREAAAYLHGRLQALGLQLFVKDPALRLPTVTTVAVPAGYDWRDIVSYVMDHFDIEIMGGLGPSTGKVLRIGLLGCNATRENVDRVTEALRAALQHCPKKKL [P11L I340M G170R] | 75.5 °C | 5.5 °C | 1920 kJ/mol |
| MASHKLLVTPPKALLKPLSIPNQLLLGPGPSNLPPRIMAAGGLQMIGSMHKDMYQIMDEIKEGIQYVFQTRNPLTLVISGSGHCALEAALVNVLEPGDSFLVGANGIWGQRAVDIGERIGARVHPMTKDPGGHYTLQEVEEGLAQHKPVLLFLTHGESSTGVLQPLDGFGELCHRYKCLLLVDSVASLGGTPLYMDRQGIDILYSGSQKALNAPPGTSLISFSDKAKKKMYSRKTKPFSFYLDIKWLANFWGCDDQPRMYHHTIPVISLYSLRESLALIAEQGLENSWRQHREAAAYLHGRLQALGLQLFVKDPALRLPTVTTVAVPAGYDWRDIVSYVIDHFDIEIMGGLGPSTGKVLRIGLLGCNATRENVDRVTEALRAALQHCPKKKL [S50H] | 67.1 °C | -2.9 °C | 1490 kJ/mol |
| MASHKLLVTPLKALLKPLSIPNQLLLGPGPSNLPPRIMAAGGLQMIGSMSKDMYQIMDEIKEGIQYVFQTRNPLTLVISGSGHCALEAALVNVLEPGDSFLVGANGIWGQRAVDIGERIGARVHPMTKDPGGHYTLQEVEEGLAQHKPVLLFLTHGESSTGVLQPLDGFGELCHRYKCLLLVDSVASLGGTPLYMDRQGIDILYSGSQKALNAPPGTSLISFSDKAKKKMYSRKTKPFSFYLDIKWLANFWGCDDQPRMYHHTIPVISLYSLRESLALIAEQGLENSWRQHREAAAYLHGRLQALGLQLFVKDPALRLPTVTTVAVPAGYDWRDIVSYVIDHFDIEIMGGLGPSTGKVLRIGLLGCNATRENVDRVTEALRAALQHCPKKKL [P11L] | 73.8 °C | 3.8 °C | 1670 kJ/mol |
| MASHKLLVTPPKALLKPLSIPNQLLLGPGPSNLPPRIMAAGGLQMIGHMSKEMYQIMDEIKEGIQYVFQTRNPLTLVISGSGHCALEAALVNVLEPGDSFLVGANGIWGQRAVDIGERIGARVHPMTKDPGGHYTLQEVEEGLAQHKPVLLFLTHGESSTGVLQPLDGFGELCHRYKCLLLVDSVASLGGTPLYMDRQGIDILYSGSQKALNAPPGTSLISFSDKAKKKMYSRKTKPFSFYLDIKWLANFWGCDDQPRMYHHTIPVISLYSLRESLALIAEQGLENSWRQHREAAAYLHGRLQALGLQLFVKDPALRLPTVTTVAVPAGYDWRDIVSYVMDHFDIEIMGGLGPSTGKVLRIGLLGCNATRENVDRVTEALRAALQHCPKKKL [S48H D52E I340M] | 89.5 °C | 19.5 °C | 1320 kJ/mol |
| MASHKLLVTPLKALLKPLSIPNQLLLGPGPSNLPPRIMAAGGLQMIGSMSKDMYQIMDEIKEGIQYVFQTRNPLTLVISGSGRCALEAALVNVLEPGDSFLVGANGIWGQRAVDIGERIGARVHPMTKDPGGHYTLQEVEEGLAQHKPVLLFLTHGESSTGVLQPLDGFGELCHRYKCLLLVDSVASLGGTPLYMDRQGIDILYSGSQKALNAPPGTSLISFSDKAKKKMYSRKTKPFSFYLDIKWLANFWGCDDQPRMYHHTIPVISLYSLRESLALIAEQGLENSWRQHREAAAYLHGRLQALGLQLFVKDPALRLPTVTTVAVPAGYDWRDIVSYVMDHFDIEIMGGLGPSTGKVLRIGLLGCNATRENVDRVTEALRAALQHCPKKKL [P11L I340M H83R] | 58.2 °C | -11.8 °C | 983 kJ/mol |
| MASHKLLVTPLKALLKPLSIPNQLLLGPGPSNLPPRIMAAGGLQMIGSMSKDMYQIMDEIKEGIQYVFQTRNPLTLVISGSGHCALEAALVNVLEPGDSFLVGANGIWGQRAVDIGERIGARVHPMTKDPGGHYTLQEVEEGLAQHKPVLLFLTHGESSTGVLQPLDGFGELCHRYKCLLLVDSVASLGGTPLYMDRQGIDILYSGSQKALNAPPGTSLISFSDKAKKKMYSRKTKPFSFYLDIKWLANFWGCDDQPRMYHHTIPVISLYSLRESLALIAEQGLENSWRQHREATAYLHGRLQALGLQLFVKDPALRLPTVTTVAVPAGYDWRDIVSYVMDHFDIEIMGGLGPSTGKVLRIGLLGCNATRENVDRVTEALRAALQHCPKKKL [P11L I340M A295T] | 77.5 °C | 7.5 °C | 2090 kJ/mol |
| MASHKLLVTPLKALLKPLSIPNQLLLGPGPSNLPPRIMAAGGLQMIGSMSKDMYQIMDEIKEGIQYVFQTRNPLTLVISGSGHCALEAALVNVLEPGDSFLVGANGIWGQRAVDIGERIGARVHPMTKDPGGHYTLQEVEEGLAQHKPVLLFLTHGESSTGVLQPLDGFGELCHRYKCLLLVDSVASLGGTPLYMDRQGIDILYSGSQKALNAPPGTSLISFSDKAKKKMYSRKTKPFSFYLDIKWLANFWGCDDQPRMYHHTIPVISLYSLRESLALIAEQGLENSWRQHREAAAYLHGRLQALGLQLFVKDPALRLPTVTTVAVPAGYDWRDIVSYVMDHFDIEIMGGLGPSTGKVLRIGLLGCNATRENVDRVTEALRAALQHCPKKKL [P11L I340M] | 76.6 °C | 6.6 °C | 1570 kJ/mol |
| MASHKLLVTPLKALLKPLSIPNQLLLGPGPSNLPPRIMAAGGLQMIGSMSKDMYQIMDEIKEGIQYVFQTRNPLTLVISGSGHCALEAALVNVLEPGDSFLVGANGIWGQRAVDIGERIGARVHPMTKDPGGHYTLQEVEEGLAQHKPVLLFLTHGESSTGVLQPLDGFGELCHRYKCLLLVDSVASLGGTPLYMDRQGIDILYSGSQKALNAPPGTSLISFSDKAKKKMYSRKTKPFSFYLDTKWLANFWGCDDQPRMYHHTIPVISLYSLRESLALIAEQGLENSWRQHREAAAYLHGRLQALGLQLFVKDPALRLPTVTTVAVPAGYDWRDIVSYVMDHFDIEIMGGLGPSTGKVLRIGLLGCNATRENVDRVTEALRAALQHCPKKKL [P11L I340M I244T] | 75.8 °C | 5.8 °C | 1680 kJ/mol |

Reference: FireProtDB (doi:10.1016/j.bbapap.2014.10.010)
